The source of these data is PMC5228590 (Journal of bone and mineral research : the official journal …, 2016).

In the experiment the target is vimentin (mouse (endogenous in MC-3T3 and in …, UniProt P20152 1-466)). In words: co-IP.
Chain of vimentin (mouse (P20152 whole entry): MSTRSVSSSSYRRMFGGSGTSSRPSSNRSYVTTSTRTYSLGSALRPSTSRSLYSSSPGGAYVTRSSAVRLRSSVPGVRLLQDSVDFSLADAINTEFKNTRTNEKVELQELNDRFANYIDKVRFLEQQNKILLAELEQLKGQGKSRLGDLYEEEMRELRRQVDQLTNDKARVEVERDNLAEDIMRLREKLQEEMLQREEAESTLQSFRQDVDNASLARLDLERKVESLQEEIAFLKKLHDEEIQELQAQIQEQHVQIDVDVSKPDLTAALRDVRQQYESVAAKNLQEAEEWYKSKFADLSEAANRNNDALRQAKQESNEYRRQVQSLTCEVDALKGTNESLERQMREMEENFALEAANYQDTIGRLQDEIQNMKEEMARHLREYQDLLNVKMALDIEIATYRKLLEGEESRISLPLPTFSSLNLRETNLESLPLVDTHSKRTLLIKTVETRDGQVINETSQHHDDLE

B1: activated PKCζ (phosphorylated on threonine 410) (enzyme, mouse (endogenous in MC-3T3), UniProt Q02956 1-592, looked up)
chain: MPSRTDPKMDRSGGRVRLKAHYGGDILITSVDAMTTFKDLCEEVRDMCGLHQQHPLTLKWVDSEGDPCTVSSQMELEEAFRLVCQGRDEVLIIHVFPSIPEQPGMPCPGEDKSIYRRGARRWRKLYRANGHLFQAKRFNRGAYCGQCSERIWGLSRQGYRCINCKLLVHKRCHVLVPLTCRRHMDSVMPSQEPPVDDKNDGVDLPSEETDGIAYISSSRKHDNIKDDSEDLKPVIDGVDGIKISQGLGLQDFDLIRVIGRGSYAKVLLVRLKKNDQIYAMKVVKKELVHDDEDIDWVQTEKHVFEQASSNPFLVGLHSCFQTTSRLFLVIEYVNGGDLMFHMQRQRKLPEEHARFYAAEICIALNFLHERGIIYRDLKLDNVLLDADGHIKLTDYGMCKEGLGPGDTTSTFCGTPNYIAPEILRGEEYGFSVDWWALGVLMFEMMAGRSPFDIITDNPDMNTEDYLFQVILEKPIRIPRFLSVKASHVLKGFLNKDPKERLGCRPQTGFSDIKSHAFFRSIDWDLLEKKQTLPPFQPQITDDYGLDNFDTQFTSEPVQLTPDDEDVIKRIDQSEFEGFEYINPLLLSAEESV
modifications: phosphothreonine at 410
As to B1, the “fold increase of the association with IGF-I” value amounted to 3.5 fold.
